Assay results as given in FireProtDB (doi:10.1021/bi00250a042).

B1: Subtilisin-chymotrypsin inhibitor-2A, P01053 (parent)
chain: MSSVEKKPEGVNTGAGDRHNLKTEWPELVGKSVEEAKKVILQDKPEAQIIVLPVGTIVTMEYRIDRVRLFVDKLDNIAQVPRVG

Variants of: B1
Details: Hordeum vulgare; pH 6.3; 25 °C; GdnHCl; Fluorescence; MES 450 mM; reversible: yes; structure 2CI2; whole UniProt chain shown

MSSVEKKPEGVNTGAGDRHNLKTEWPELVGKSVEEAKKVILQDKPEAQIIVLPVGTIVDMEYRIDRVRLFVDKLDNIAQVPRVG [T59D]
ddG of mutation (higher = less stable): 0.04 kcal/mol
denaturant m value: 1.87 kcal/mol/M
denaturant midpoint (higher = more stable): 4.01 M
unfolding free energy: 7.5 kcal/mol

MSSVEKKPEGVNTGAGDRHNLKTEWPELVGKSVEEAKKVILQDKPEAQIIVLPVGTIVAMEYRIDRVRLFVDKLDNIAQVPRVG [T59A]
ddG of mutation (higher = less stable): 0.68 kcal/mol
denaturant m value: 1.89 kcal/mol/M
denaturant midpoint (higher = more stable): 3.63 M
unfolding free energy: 6.86 kcal/mol

MSSVEKKPEGVNTGAGDRHNLKTEWPELVGKSVEEAKKVILQDKPEAQIIVLPVGTIVTMAYRIDRVRLFVDKLDNIAQVPRVG [E61A]
ddG of mutation (higher = less stable): 1.06 kcal/mol
denaturant m value: 1.78 kcal/mol/M
denaturant midpoint (higher = more stable): 3.64 M
unfolding free energy: 6.48 kcal/mol

MSSVEKKPEGVNTGAGDRHNLKTEWPELVGKSVEEAKKVILQDKPEAQIIVLPVGTIVAMAYRIDRVRLFVDKLDNIAQVPRVG [T59A E61A]
ddG of mutation (higher = less stable): 0.67 kcal/mol
denaturant m value: 1.94 kcal/mol/M
denaturant midpoint (higher = more stable): 3.54 M
unfolding free energy: 6.87 kcal/mol
